Measured values taken from US10100120B2, “Antibody which specifically binds to human CRTH2” (KYOWA HAKKO KIRIN CO., LTD, priority 2015, dated 2018).

How the values were obtained:
[1] = target: T1, human CRTH2 (Homo sapiens, UniProt Q9Y5Y4); assay: Reactivity in presence of ligand DKPGD2, human CRTH2-expressing 293 EBNA cells; type: binding; conditions: DKPGD2 10 μM; antibody 0.3, 1 and 3 μg/mL; relative to absence of DKPGD2; FIG. 13
T1 construct: expressed in transfected cells
T1 sequence (Q9Y5Y4 1-395): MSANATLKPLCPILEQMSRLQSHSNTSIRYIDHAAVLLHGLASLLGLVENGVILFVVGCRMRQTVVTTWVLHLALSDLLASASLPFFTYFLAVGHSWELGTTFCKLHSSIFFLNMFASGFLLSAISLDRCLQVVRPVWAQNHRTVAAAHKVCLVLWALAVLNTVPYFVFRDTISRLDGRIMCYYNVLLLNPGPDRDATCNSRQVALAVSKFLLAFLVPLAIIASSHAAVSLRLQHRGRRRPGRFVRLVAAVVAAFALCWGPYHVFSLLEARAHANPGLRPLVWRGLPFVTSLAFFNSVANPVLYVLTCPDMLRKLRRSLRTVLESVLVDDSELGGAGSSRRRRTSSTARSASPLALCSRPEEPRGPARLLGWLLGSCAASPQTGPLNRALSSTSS
Experimental: Human CRTH2-expressing 293 EBNA cells were established by introducing the human CRTH2 gene expression pAMoh vector prepared in Example 1-(1)-(ii) into 293 EBNA cells (Invitrogen) using Fugene 6 (Promega Corporation) and selecting drug-resistant cells by culture medium formed of 10% FBS, 0.25 mg/mL of G418 (NACALAI TESQUE, Inc.), […] (NACALAI TESQUE, Inc.), and 300 μg/mL of hygromycin B (Wako Pure Chemical Industries) in DMEM.
The human CRTH2-expressing 293 EBNA cells were peeled using 0.02% EDTA solution (NACALAI TESQUE, Inc.), washed with PBS, and suspended with the above-described culture medium. […]
After the cells were washed 5 times with SM, 10 μg/mL of goat anti-Human IgG Alexa 647 (Molecular Probes) diluted with SM was added to wells to which LV0HV1, hu19A2 v52, hu8B1 v1, ch3C12, or ch31A5 was added, 10 μg/mL of goat anti-Rat IgG Alexa 647 (Molecular Probes) diluted with SM was added to wells to which BM16 was added, and 10 μg/mL of goat anti-Mouse IgG Alexa 647 (Molecular Probes) diluted with SM was added to wells to which 301108 was added at a final concentration of 10 μg/mL to cause a reaction at 4° C. for 40 minutes. After the cells were washed again, the cells were suspended with SM, and the fluorescent intensity was analyzed by flow cytometry (BD Biosciences, FACS CantoII).

[2] = system: differentiation-induced human mast cells; assay: Reactivity against differentiation-induced human mast cells; type: binding; conditions: mast cells stimulated by IgE and crosslinking antibody; antibody 10 μg/mL; FIG. 14
Experimental: Mast cells were prepared according to the method described in Nature Protocols 2006, 1(4), 2178 to 2183. The mast cells after 11 weeks from the start of differentiation induction were washed with SM and seeded in a 96-well plate such that each well had 5×10^4 cells, and PE anti-human CD203c (E-NPP3) Antibody (Biolegend Inc.), Brilliant Violet 421 (trademark) anti-human CD117 (c-kit) Antibody (Biolegend Inc.), and Anti-Human Fc epsilon Receptor I alpha (FcεR1) PE (eBioscience) were added thereto to cause a reaction at 4° C. for 1 hour. After the cells were washed again, the cells were suspended with SM, and the fluorescent intensity was analyzed by flow cytometry (BD Biosciences, FACS CantoII). […]
After the cells were washed, streptavidin, Alexa Fluor 647 conjugate (Molecular Probes) diluted with SM was added to wells to which biotin-labeled LV0HV1, hu19A2 v52, ch8B1 v1, ch3C12, or ch31A5 was added, goat anti-Rat IgG Alexa 647 (Molecular Probes) diluted with SM was added to wells to which BM16 was added, and goat anti-Mouse IgG Alexa 647 (Molecular Probes) diluted with SM was added to wells to which 301108 was added at a final concentration of 10 μg/mL to cause a reaction at 4° C. for 40 minutes. After the cells were washed again, the cells were suspended with SM, and the fluorescent intensity was analyzed by flow cytometry (BD Biosciences, FACS CantoII).

binding to human CRTH2-expressing cells in the presence of DKPGD2 [1]: almost not decreased
B1: LV0HV1: humanized Lym2 antibody, VL LV0 (SEQ ID NO: 33), VH HV1 (SEQ ID NO: 51) (antibody, V domains shown)
VH: EVQLVESGGGVVQPGRSLRLSCAASGFTFSNYYMAWVRQAPGKGLEWVATISYDGSSTYYRDSVKGRFTISRDNAKNSLYLQMNSLRAEDTATYYCARHRGYYYSGAGYFDYWGQGTMVTVSS
VL: DIVMTQTPLSLPVTPGESASISCRSSQSLEYSDGYTYLEWYLQKPGQSPQVLIYGVSNRFSGVPDRFSGSGSGTDFTLKISRVEAEDVGVYYCFQATHDPLTFGQGTKLEIK
reactivity against mast cells [2]: did not exhibit reactivity
